Laboratory results reported in patent US20180021429A1, “ANTICANCER AGENTS OR ANTIMETASTATIC AGENTS USING FSTL1 AND COMBINATION DRUG THEREOF” (PHARMA FOODS INTERNATIONAL CO., LTD., priority 2015, published 2018).

Experiments:
human FSTL1 = biological target: T1, human FSTL1 (Homo sapiens, UniProt Q12841); experiment: ELISA binding activity of purified antibody against human FSTL1; conditions: FIG. 95B
T1 construct: AAA linker + 10xHis (C); made in house; host or cells: Expi293 (transient expression; purified from culture supernatant on HisPur Cobalt Resin)
T1 sequence (Q12841 with tags, fused parts or gaps): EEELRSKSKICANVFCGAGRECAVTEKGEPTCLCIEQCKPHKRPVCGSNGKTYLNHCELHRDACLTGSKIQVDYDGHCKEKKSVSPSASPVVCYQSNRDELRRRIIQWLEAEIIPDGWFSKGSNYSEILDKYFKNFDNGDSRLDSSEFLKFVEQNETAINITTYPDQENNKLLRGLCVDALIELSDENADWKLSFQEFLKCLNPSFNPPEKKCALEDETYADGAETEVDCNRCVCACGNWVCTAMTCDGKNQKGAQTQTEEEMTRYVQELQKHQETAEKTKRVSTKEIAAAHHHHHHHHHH
Method: The reactivity of the obtained antibody clones described above with FSTL1 was evaluated by ELISA under the following conditions.
(Table 2 ELISA Conditions for Binding Activity Evaluation of Purified Antibody)
Antibodies used: anti-dinitrophenyl (DNP) antibody (negative control), #5-2, #5-3, #5-8, #5-10, #5-43, #6-55, and #7-34
FIGS. 96 and 97 show results of evaluating binding activity under the condition of Table 3 as to clones differing in screening and antibody purification timings.
(Table 3 ELISA Conditions for Binding Activity Evaluation of Purified Antibody)

[1] = tested on: mouse breast cancer 4T1 cells; experiment: Mouse breast cancer 4T1 cell-transplanted model (Example 21); format: in vivo; conditions: BALB/c mice; intraperitoneal 10 mg/kg on days 4 and 7; FIG. 109
Method: (§1) Procedures and methods of the experiment were basically performed according to Examples 17 to 20 under substantially the same conditions as in the bone metastasis model experiments of Examples 17 to 20. Drug efficacy evaluation was conducted using mouse tumor models other than Snail-positive tumor bone metastasis models. The drug efficacy of the anti-FSTL1 antibody was evaluated using cancer-bearing models of BALB/c mice different in strain from the C57BL/6 mice used in the preceding tests. Changes were made as follows. • Day 0: transplantation of tumor cells (5×10^5 cells subcutaneously & 5×10^5 cells intravenously) • Days 4 and 7: intraperitoneal administration of the antibody (10 mg/kg) • Day 14: drug efficacy evaluation (subcutaneous tumor growth)
The tumor volumes of the mice were measured 4, 7, 11, and 14 days after tumor implantation.

[2] = tested on: mouse colorectal cancer CT26 cells; experiment: In vivo, mouse colorectal cancer CT26 cell-transplanted model (Example 20); conditions: intraperitoneal 10 mg/kg on days 4 and 7
Method: as §1, with “performed” for “performed according to Examples 17 to 20”, “19 except that bone metastasis was not evaluated. Specifically, drug” for “20. Drug”, “The test was conducted by changing only the amount of tumor implanted, antibody administration timing, and assay timing.” for “Changes were made as follows.”, “intravenously)” for “intravenously) •”, “growth (FIG. 44A) and lung metastasis (FIG. 44B))” for “growth)”
For lung metastasis, the number of metastatic nodules in the lung was macroscopically counted. The tumor volumes of the mice were measured 7, 11, and 14 days after tumor implantation.
as §1, with “performed” for “performed according to Examples 17 to 20”, “19 except that bone metastasis was not evaluated. Specifically, drug” for “20. Drug”, “The test was conducted by changing only the amount of tumor implanted, antibody administration timing, and assay timing.” for “Changes were made as follows.”, “growth (FIG. 76A) and lung metastasis (FIG. 76B))” for “growth)”

B1: #6-55: chicken-mouse chimeric anti-FSTL1 antibody clone; variable regions SEQ ID NO: 783 (light), 785 (heavy) (antibody, V domains shown)
VH: AVTLDESGGGLQTPGGALSLVCKGSGFTFTSVTMQWVRQAPGKGLEWVASVCSGSSTYYAPAVKGRATISRDNGQSTVRLQLSNLRPEDTGTYYCAKIAGRARWSCTSAAYNIDAWGHGTEVIVSS
VL: ASTQPSSVSAIPGETVKITCSGGGNNYGWYQQRSPGSAPVTVIYYNDNRPSNIPSRFSGSTSGSTSTLTITGVQADDEAIYYCGSWDSNTDSGIFGAGTTLTVL
modifications: mouse constant regions
For B1, the “binding activity against human FSTL1” value (human FSTL1) was “specific and equivalently strong binding activity”, the “growth of 4T1 subcutaneous tumor” value [1] was “significantly suppressed” and the “growth of CT26 subcutaneous tumor” value ([2]; BALB/c mice) was “very strongly suppressed”. For the same molecule, the “lung metastasis of CT26 tumor” value ([2]; BALB/c mice, day 14) was “very strongly suppressed” and the “mice in which solid tumor disappeared” value ([2]; n=5) was “three out of the five mice”.
